These results are taken from the supplement of paper PMC12042874.

± gives the uncertainty stated by the source.

A short description of the data set: amyloid nucleation score (Sup35N fusion, yeast selection) (log enrichment); library NNK2; higher = more nucleation; inactive = no reads after selection. The gist of the method: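 The nucleation score is the log enrichment of output over input reads, calculated with DiMSum and centred on the mode score of non-aggregating sequences. Sequences with under 100 input reads were excluded. Reads came from Illumina sequencing of plasmid inserts from psi-negative yeast expressing Sup35N fused to peptides of 20 random codons, induced 24 hours with 100 μM copper sulfate and grown 7 days at 30°C without adenine and uracil.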
As for GTTWLTVLALVALSEISCRM, the amyloid nucleation score came to 0.384 ± 0.28.
Under EFIEYTSFYWWNLLRLGVHS stands -0.61 ± 0.23; under GIQGLRVWFAYMFPSVVLLC, -0.987 ± 0.78; under TQFISFRYYHNVDEIHYVVN, “inactive”.
For YVSLNQRVNFA the value was -1.47 ± 0.76.
Under SFSPFVYG stands -0.868 ± 0.44; under HLFCTMHSQTLEDYIKSLVC, -0.087 ± 1.
ASLIRGATKGQTVCEMALSG returned an amyloid nucleation score of -0.07 ± 0.27.
For RGWKSLWRLNFYVWVWHLKD the value was 2.67 ± 0.09.
Consider HAMLRTDILICCITH, for which the amyloid nucleation score worked out at 9.805 ± 0.065.
Under WKNYRNMEWCVSSVLSFFYV stands 5.31 ± 0.077; under NEVVFRVYK, 3.22 ± 0.068; under SPYHKANGHKNVARLYFRWR, 0.731 ± 0.41.
Under LCYSFYPQSVKSFEFPNYFY stands “inactive”; under LWRIVSWVECIRCTNP, 0.182 ± 0.79; under KIRFIPTPKYHEIYMNAAIG, -1.7 ± 0.75.
For SLWRNHMMQ the value was 0.746 ± 0.4; for IRALDGHGFSSPWARFGPAG, 0.755 ± 0.4.
Regarding IFVVCLGMDTVYLIGYYSPA, the amyloid nucleation score is -1.25 ± 0.78.
For KKSYFTSLTLLFMTPFSLSY, the amyloid nucleation score entry was “inactive”.
Under HTTGFPFRGLGDIDSLAEQF stands -0.217 ± 0.79; under FLNPFNHREHPRVED, 0.775 ± 0.62; under ATSMVSSTRVHVHFDHVRVE, 6.54 ± 0.066.
For VQRQIDNSKLWYNYTICIPA the value was 0.679 ± 0.62; for CLYMRFAFHLPELRALTKSP, 0.094 ± 0.77; for NMEQFTRSIKSIGKRFTVTV, -0.471 ± 0.76.
Under IVCDWRTP stands 0.614 ± 0.41.
As to WLCDWLASIWCMFGLSGCSR, the amyloid nucleation score was determined as 0.232 ± 0.35.
Under YYEYGL stands -0.298 ± 0.4.
For SAVWRHVNDLLLSR the value was 1.11 ± 0.4; for RYPLVKFQCYTGNYGKFGNL, 3.01 ± 0.071; for WTYRCPALLFYQFYAKGYA, -0.594 ± 0.63.
Under DKRGF stands “inactive”.
The substance WMWPPMPLGKVAQRGLAVVC came in with an amyloid nucleation score of 1.28 ± 0.22.
For SDSYAILLPC the value was 0.087 ± 0.79; for CCFCFDNLIIPRDCYANSDN, 6.734 ± 0.03; for YKSYSNPVLHHYSSLIPGPN, -0.001 ± 0.41.
Under IAFKLRSTLSQPRNTCVLWH stands 0.276 ± 1; under VSPLNGSVYGGDEVFGINLG, -1.95 ± 0.75.
For MSGAFVYAWCLRTGKCTQAG the value was -0.082 ± 0.27.
Consider WERVKYLLDYL, for which the amyloid nucleation score entry is “inactive”.
For DGNAVCDILLLTSIMVSVSA the value was -0.551 ± 0.54; for EQSNSNPSHKY, “inactive”.
For TSRDWCLDVPWKSHYYEVKY the value was -0.518 ± 0.48; for SDNVLNDSSCLLYINFGAGQ, 2.69 ± 0.15.
For SYFLYLGLNPVYQWYDSFVV the value was 1.47 ± 0.14; for YNIFPIISLITRNK, 6.42 ± 0.064.
Regarding LCCRCIKVIAALKLNIENHQ, the amyloid nucleation score came to 3.65 ± 0.095.
For AFHWMF the value was 0.544 ± 0.28; for IGSEDPRHFRSVCWSYNDTL, -0.789 ± 0.61.
FGSALFSIILH yielded an amyloid nucleation score of 5.607 ± 0.033.
Regarding GTVGVGMS, the amyloid nucleation score came to 1.11 ± 0.66.
Under VLSVSWYAYCVSMMFIKNWA stands 0.697 ± 0.19; under KATDSRYRFFMILMFYMTIY, “inactive”.
In turn, MVIWFPLEIMIRIRSPL registered an amyloid nucleation score of -0.766 ± 0.48.
Under LVNKG stands 3.15 ± 0.064; under IHNWIDSVERTALDMWERNA, 1.98 ± 0.14; under CIFCYANVFAYFTTKGLFVQ, -0.885 ± 0.38.
With RMGKRNFEQNSANQWVPMNP, the amyloid nucleation score came out at 0.691 ± 0.6.
For LLPYSSHN the value was 4.901 ± 0.039; for RNSAHNLEMFYRGMWDGMCW, -0.429 ± 0.55; for VFAGFACFHIIN, 5.843 ± 0.044.
Under WWLKALPRVILARLVSRGQG stands 0.458 ± 0.29; under THPEFSIPIGRHHYGG, -0.836 ± 0.29; under HYGVNESLIKRYNWLRGVIW, 0.227 ± 1.1.
Turning to LWTKFDSPSRVCHKSQLSKA, the amyloid nucleation score is 0.192 ± 0.26.
For SARFCIWVYVSNGNNGMRCV the value was 3.52 ± 0.04; for VNSDYMGIGL, -0.272 ± 1.1.
For LCSSVLGGNRETAECFRFDQ the value was -0.67 ± 0.34; for INFLNWFNLFDGYMFSLSAY, “inactive”.
For QLAYNEDMSVVGFCYIWYYG the value was 6.456 ± 0.048; for GFPRMTIHVKFHGQFSCFII, 0.615 ± 0.5; for ICSYVTVCVRLGFCKLNAMM, 0.504 ± 0.51.
For the substance NVFLLSVREMSSFLRTTTLG, the amyloid nucleation score was found to be 1.24 ± 0.17.
Under LVMRMFRERYNLCVSYWLN stands “inactive”.
As to AFNWIEVCEETSPGSTTEGS, the amyloid nucleation score amounted to 0.318 ± 0.39.
Under KICWYQFKANMASQ stands 4.41 ± 0.086; under TIMNYTGCYFGPVGPDRDLG, 6.824 ± 0.042.
For FNMTIVDISLYRFMNVLKRP the value was -0.907 ± 0.78.
For SNCSLMGYCMYAYNGSDTGC the value was 4.58 ± 0.11; for RCRPFFPRNVFSRVENIYHA, -0.602 ± 1.1.
As for TYDLDLVMLRSMRVENLLWG, the amyloid nucleation score came to 0.616 ± 0.4.
Under LAWSVLNMFRKVAFN stands 0.089 ± 1.1; under SDICTLAEQSGASIRDRLTL, -0.284 ± 1.1; under YYVDVLESISSGMFLYSQLV, -1.95 ± 0.54.
For LAKADPWHLKMLFSAMLRQD the value was 0.332 ± 0.26.
Under AMLLANALIWNRICGDRRLA stands 0.823 ± 0.4; under CWVAYERSHTFRPKNQFFMH, 1.02 ± 0.53.
Take LWAPAYCLIKC: the amyloid nucleation score worked out at 0.851 ± 0.57.
For FFDIVIAERLTVLHVSVVSK the value was 4.59 ± 0.074; for RCSCPANGFLMGQLAVMS, 2.83 ± 0.12.
ISSNKGFVEVAVSWVPRDVR had an amyloid nucleation score of 0.744 ± 0.38.
Under RMSVYNF stands -0.177 ± 0.79; under AFNERAYYVGGLTADME, 0.753 ± 0.43.
Take TIACLEINPHAMSDYMRLCH: the amyloid nucleation score is -0.842 ± 0.49.
For FTIALIYTFLLISCLLGMSV the value was 0.164 ± 1.1; for HCVLRSQT, 2.38 ± 0.12.
For RCRVFYQNHIYLGFLKCNQS the value was 1.42 ± 0.16; for RLYIIIRFGIVHVT, -0.078 ± 0.21; for GSSNASVATGFVHIKEVKGG, 0.461 ± 0.8.
For SDNMFSWRCLKDTWLDRRWA the value was 0.294 ± 0.22; for HVLNWTYSTRIDAGGKSIRM, -0.631 ± 0.76.
The substance CFFSNQMADGYPQRWAVLRD gave an amyloid nucleation score of 4.94 ± 0.054.
Consider YVSEQTHPMVIMYHFLRQHQ, for which the amyloid nucleation score is -0.181 ± 0.5.
Under LLFPCFVTRSLVS stands -0.871 ± 0.32; under SHAIHRCVGWFGVWTGTLFI, 3.69 ± 0.083; under VLNCNRYFRCSANNIEASES, 0.27 ± 0.56.
Under RRNTLRYARMKSRYSFAP stands -0.674 ± 0.79.
Under SWFSSNFFFY stands 5.27 ± 0.058; under GNNGRFSWVY, 0.556 ± 0.37; under CAKCVMCSNCPKNSGRILYR, -1.12 ± 1.1.
MMLRLSCSSPQSLVRSSS: the amyloid nucleation score is -0.181 ± 0.63.
The substance FPSCSRGLHFKGLWTWYFPT yielded an amyloid nucleation score of -0.388 ± 1.1.
For VWLNSHFLMGRI the value was -1.46 ± 0.54; for NFMCVSYQAAANSILRVPQS, 1.28 ± 0.11; for GQSCHYCRMTLNIDFTDWVL, -0.228 ± 0.39.
Under NSRLLVDGHFIRTFRAFWVN stands -1.12 ± 0.56.
For YFSSTYLRQGIFWCFRMSRL the value was -0.43 ± 1.1.
FSVRVTSRFIRYEGSFHFSK had an amyloid nucleation score of 0.032 ± 0.76.
For NGVGLSVTGKCCKERSIFPP the value was -0.406 ± 0.5; for QSSTYLSPRLHTISDIPYNF, -0.781 ± 0.38; for FMGFTISFFVRDFAPDLTKR, 3.1 ± 0.064.
For SLVTLWLGANAR the value was 0.175 ± 0.26.
For VISKYDWFK the value was -0.255 ± 1.1.
For ILQWEVSWLCKNHT, the amyloid nucleation score is 0.683 ± 0.35.
In turn, VLNSPVFFHSYRSMVSLM gave an amyloid nucleation score of -0.117 ± 0.3.
Under GSNTSDHDNLD stands -0.238 ± 0.5; under YFISDEIVQSNIFSLIGWFC, 8.556 ± 0.042.
For NWASKTFYGSYGSRYCQFGE the value was 1.07 ± 0.59; for GFKYVRSRNSGALYKYSS, -0.962 ± 0.54; for GNFVRLLV, -0.031 ± 0.37.
With YTTNIF, the amyloid nucleation score is -0.793 ± 0.49.
For TPFGTVECTQLLLSTSRWLF the value was -0.26 ± 1; for KLPYVEIPVVLTSLSYLGV, “inactive”.
The substance TCSGLCYIHWACIIGKDNYM had an amyloid nucleation score of 4.9 ± 0.087.
For AWEAPPYMCRDILRSWRGRL the value was 0.757 ± 0.51; for TSSTTGSYLWEDEDYSYNFF, 1.68 ± 0.12; for AISDGPET, 0.746 ± 0.43.
